Measured values taken from PMC9482650, “Quantitative fragmentomics allow affinity mapping of interactomes” (Nature Communications, 2022).
Positions count from the first letter of the chain named.

T1: DLG3_1, Q92796
T1 sequence (Q92796 125-227, limits assumed, looked up): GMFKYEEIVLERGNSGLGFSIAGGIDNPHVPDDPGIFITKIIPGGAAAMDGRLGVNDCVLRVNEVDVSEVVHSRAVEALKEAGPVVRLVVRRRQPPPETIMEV

T2: GRIP1_5, Q9Y3R0
T2 sequence (Q9Y3R0 568-668, limits assumed, looked up): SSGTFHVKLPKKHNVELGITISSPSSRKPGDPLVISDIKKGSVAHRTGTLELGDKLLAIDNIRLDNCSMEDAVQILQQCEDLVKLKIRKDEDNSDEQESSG

T3: SYNJ2BP, P57105
T3 sequence (P57105 8-110, limits assumed, looked up): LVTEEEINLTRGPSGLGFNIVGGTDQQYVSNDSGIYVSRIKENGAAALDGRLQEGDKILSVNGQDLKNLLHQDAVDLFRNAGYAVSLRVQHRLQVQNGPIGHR

T4: APBA1_2, Q02410
T4 sequence (Q02410 742-832, limits assumed, looked up): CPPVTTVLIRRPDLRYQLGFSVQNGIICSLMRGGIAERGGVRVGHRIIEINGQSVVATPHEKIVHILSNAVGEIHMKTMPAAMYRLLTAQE

T5: TJP3_3, O95049
T5 sequence (O95049 375-456, limits assumed, looked up): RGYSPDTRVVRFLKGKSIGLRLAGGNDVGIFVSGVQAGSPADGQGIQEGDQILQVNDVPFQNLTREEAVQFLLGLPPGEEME

T6: LIN7A, O14910
T6 sequence (O14910 103-200, limits assumed, looked up): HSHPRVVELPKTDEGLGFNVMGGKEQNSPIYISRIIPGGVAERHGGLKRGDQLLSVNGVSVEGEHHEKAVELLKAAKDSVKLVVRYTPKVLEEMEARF

T7: PARD3B_1, Q8TEW8
T7 sequence (Q8TEW8 196-299, limits assumed, looked up): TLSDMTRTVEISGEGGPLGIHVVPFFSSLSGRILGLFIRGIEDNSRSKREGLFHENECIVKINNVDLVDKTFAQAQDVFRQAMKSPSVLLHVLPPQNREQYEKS

T8: SHANK1, Q9Y566
T8 sequence (Q9Y566 658-767, limits assumed, looked up): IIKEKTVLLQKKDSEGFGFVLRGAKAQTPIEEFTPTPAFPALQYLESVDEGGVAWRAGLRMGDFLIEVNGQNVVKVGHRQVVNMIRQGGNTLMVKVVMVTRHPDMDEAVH

T9: RADIL, Q96JH8
T9 sequence (Q96JH8 971-1071, limits assumed, looked up): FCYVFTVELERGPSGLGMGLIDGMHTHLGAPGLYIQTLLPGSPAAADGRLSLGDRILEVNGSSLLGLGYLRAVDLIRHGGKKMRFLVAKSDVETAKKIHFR

T10: LIN7C, Q9NUP9
T10 sequence (Q9NUP9 88-185, limits assumed, looked up): T6 sequence (O14910 103-200, limits assumed, looked up) with D13E, V20I, V40I, E42D, K77Q, D78G, S79K, A96S

B1: ABCA2, Q9BZC7 (peptide)
chain: QLSFNTDTLC
B2: PRKACA, P17612 (peptide)
chain: EKCGKEFSEF

target: GRIP2_3, Q9C0E4; assay: holdup assay; parameters: key: below the threshold = too weak to quantify, mostly under pKd 3.1 to 4; details: plain residues with an end cap or a label only (N-terminal biotin on a linker: ado-ado)
Sequence (Q9C0E4 238-339): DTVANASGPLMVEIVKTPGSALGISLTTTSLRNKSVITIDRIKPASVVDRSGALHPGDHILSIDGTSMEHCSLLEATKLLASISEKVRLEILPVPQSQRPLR

| pKd | Binder |
| --- | --- |
| below the threshold | B1 |
| below the threshold | B2 |

target: NHERF2_2, Q15599; assay: holdup assay; parameters: key: below the threshold = too weak to quantify, mostly under pKd 3.1 to 4; details: plain residues with an end cap or a label only (N-terminal biotin on a linker: ado-ado)
Sequence (Q15599 142-238): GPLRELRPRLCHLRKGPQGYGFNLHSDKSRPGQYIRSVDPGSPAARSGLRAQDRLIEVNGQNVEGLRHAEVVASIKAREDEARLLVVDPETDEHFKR

| pKd | Binder |
| --- | --- |
| 3.59 | B1 |
| 4.18 | B2 |

target: PTPN3, P26045; assay: holdup assay; parameters: key: below the threshold = too weak to quantify, mostly under pKd 3.1 to 4; details: plain residues with an end cap or a label only (N-terminal biotin on a linker: ado-ado)
Sequence (P26045 505-587): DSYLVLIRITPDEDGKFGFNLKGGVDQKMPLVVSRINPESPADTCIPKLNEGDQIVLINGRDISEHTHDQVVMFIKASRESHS

| pKd | Binder |
| --- | --- |
| 4.09 | B1 |
| 3.98 | B2 |

target: MAGI2_5, Q86UL8; assay: holdup assay; parameters: key: below the threshold = too weak to quantify, mostly under pKd 3.1 to 4; details: plain residues with an end cap or a label only (N-terminal biotin on a linker: ado-ado)
Sequence (Q86UL8 915-1017): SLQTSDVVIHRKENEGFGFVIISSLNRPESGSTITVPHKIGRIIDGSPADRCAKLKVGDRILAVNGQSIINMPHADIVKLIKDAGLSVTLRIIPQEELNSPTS

| pKd | Binder |
| --- | --- |
| 3.73 | B1 |
| 3.8 | B2 |

target: T1, DLG3_1, Q92796; assay: holdup assay; parameters: key: below the threshold = too weak to quantify, mostly under pKd 3.1 to 4; details: plain residues with an end cap or a label only (N-terminal biotin on a linker: ado-ado)

| pKd | Binder |
| --- | --- |
| 3.61 | B1 |
| below the threshold | B2 |

target: T2, GRIP1_5, Q9Y3R0; assay: holdup assay; parameters: key: below the threshold = too weak to quantify, mostly under pKd 3.1 to 4; details: plain residues with an end cap or a label only (N-terminal biotin on a linker: ado-ado)

| pKd | Binder |
| --- | --- |
| below the threshold | B1 |
| below the threshold | B2 |

target: T3, SYNJ2BP, P57105; assay: holdup assay; parameters: key: below the threshold = too weak to quantify, mostly under pKd 3.1 to 4; details: plain residues with an end cap or a label only (N-terminal biotin on a linker: ado-ado)

| pKd | Binder |
| --- | --- |
| 3.58 | B1 |
| below the threshold | B2 |

target: T4, APBA1_2, Q02410; assay: holdup assay; parameters: key: below the threshold = too weak to quantify, mostly under pKd 3.1 to 4; details: plain residues with an end cap or a label only (N-terminal biotin on a linker: ado-ado)

| pKd | Binder |
| --- | --- |
| below the threshold | B1 |
| below the threshold | B2 |

target: T5, TJP3_3, O95049; assay: holdup assay; parameters: key: below the threshold = too weak to quantify, mostly under pKd 3.1 to 4; details: plain residues with an end cap or a label only (N-terminal biotin on a linker: ado-ado)

| pKd | Binder |
| --- | --- |
| below the threshold | B1 |
| below the threshold | B2 |

target: Inadl_2, Q8NI35; assay: holdup assay; parameters: key: below the threshold = too weak to quantify, mostly under pKd 3.1 to 4; details: plain residues with an end cap or a label only (N-terminal biotin on a linker: ado-ado)
Sequence (Q8NI35 238-335): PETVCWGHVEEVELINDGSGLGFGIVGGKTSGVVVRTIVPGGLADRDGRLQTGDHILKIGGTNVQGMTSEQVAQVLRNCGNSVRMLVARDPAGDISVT

| pKd | Binder |
| --- | --- |
| below the threshold | B1 |
| below the threshold | B2 |

target: DLG1_1, Q12959; assay: holdup assay; parameters: key: below the threshold = too weak to quantify, mostly under pKd 3.1 to 4; details: plain residues with an end cap or a label only (N-terminal biotin on a linker: ado-ado)

| pKd | Binder |
| --- | --- |
| 3.87 | B1 |
| below the threshold | B2 |

target: Inadl_1, Q8NI35; assay: holdup assay; parameters: key: below the threshold = too weak to quantify, mostly under pKd 3.1 to 4; details: plain residues with an end cap or a label only (N-terminal biotin on a linker: ado-ado)
Sequence (Q8NI35 113-229): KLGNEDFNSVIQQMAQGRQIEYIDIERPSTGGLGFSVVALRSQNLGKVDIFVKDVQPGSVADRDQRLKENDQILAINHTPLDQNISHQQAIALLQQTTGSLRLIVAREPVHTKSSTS

| pKd | Binder |
| --- | --- |
| below the threshold | B1 |
| below the threshold | B2 |

target: T6, LIN7A, O14910; assay: holdup assay; parameters: key: below the threshold = too weak to quantify, mostly under pKd 3.1 to 4; details: plain residues with an end cap or a label only (N-terminal biotin on a linker: ado-ado)

| pKd | Binder |
| --- | --- |
| below the threshold | B1 |
| below the threshold | B2 |

target: MAGI1_2, Q96QZ7; assay: holdup assay; parameters: key: below the threshold = too weak to quantify, mostly under pKd 3.1 to 4; details: plain residues with an end cap or a label only (N-terminal biotin on a linker: ado-ado)
Sequence (Q96QZ7 456-580): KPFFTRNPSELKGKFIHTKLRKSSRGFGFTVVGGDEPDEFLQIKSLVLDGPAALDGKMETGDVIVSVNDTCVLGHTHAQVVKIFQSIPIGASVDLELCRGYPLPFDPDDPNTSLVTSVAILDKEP

| pKd | Binder |
| --- | --- |
| below the threshold | B1 |
| below the threshold | B2 |

target: T7, PARD3B_1, Q8TEW8; assay: holdup assay; parameters: key: below the threshold = too weak to quantify, mostly under pKd 3.1 to 4; details: plain residues with an end cap or a label only (N-terminal biotin on a linker: ado-ado)

| pKd | Binder |
| --- | --- |
| 3.67 | B1 |
| 3.91 | B2 |

target: T8, SHANK1, Q9Y566; assay: holdup assay; parameters: key: below the threshold = too weak to quantify, mostly under pKd 3.1 to 4; details: plain residues with an end cap or a label only (N-terminal biotin on a linker: ado-ado)

| pKd | Binder |
| --- | --- |
| below the threshold | B1 |
| below the threshold | B2 |

target: DLG2_2, Q15700; assay: holdup assay; parameters: key: below the threshold = too weak to quantify, mostly under pKd 3.1 to 4; details: plain residues with an end cap or a label only (N-terminal biotin on a linker: ado-ado)
Sequence (Q15700 189-283): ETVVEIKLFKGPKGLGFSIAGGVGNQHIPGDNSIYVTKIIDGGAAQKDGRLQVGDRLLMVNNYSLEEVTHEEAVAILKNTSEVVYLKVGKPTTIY

| pKd | Binder |
| --- | --- |
| below the threshold | B1 |
| below the threshold | B2 |

target: Inadl_9, Q8NI35; assay: holdup assay; parameters: key: below the threshold = too weak to quantify, mostly under pKd 3.1 to 4; details: plain residues with an end cap or a label only (N-terminal biotin on a linker: ado-ado)
Sequence (Q8NI35 1530-1615): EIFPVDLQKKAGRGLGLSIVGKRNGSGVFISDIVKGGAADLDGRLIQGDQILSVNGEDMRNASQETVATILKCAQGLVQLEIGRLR

| pKd | Binder |
| --- | --- |
| below the threshold | B1 |
| below the threshold | B2 |

target: T9, RADIL, Q96JH8; assay: holdup assay; parameters: key: below the threshold = too weak to quantify, mostly under pKd 3.1 to 4; details: plain residues with an end cap or a label only (N-terminal biotin on a linker: ado-ado)

| pKd | Binder |
| --- | --- |
| 3.49 | B1 |
| below the threshold | B2 |

target: AHNAK1, Q09666; assay: holdup assay; parameters: key: below the threshold = too weak to quantify, mostly under pKd 3.1 to 4; details: plain residues with an end cap or a label only (N-terminal biotin on a linker: ado-ado)
Sequence (Q09666 4-100): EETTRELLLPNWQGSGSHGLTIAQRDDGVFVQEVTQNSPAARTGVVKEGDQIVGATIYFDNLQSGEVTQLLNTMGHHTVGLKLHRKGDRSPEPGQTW

| pKd | Binder |
| --- | --- |
| below the threshold | B1 |
| below the threshold | B2 |

target: MAGI1_1, Q96QZ7; assay: holdup assay; parameters: key: below the threshold = too weak to quantify, mostly under pKd 3.1 to 4; details: plain residues with an end cap or a label only (N-terminal biotin on a linker: ado-ado)
Sequence (Q96QZ7 1-106): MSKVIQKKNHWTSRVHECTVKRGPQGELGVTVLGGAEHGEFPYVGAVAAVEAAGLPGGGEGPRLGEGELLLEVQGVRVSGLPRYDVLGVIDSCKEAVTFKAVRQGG

| pKd | Binder |
| --- | --- |
| below the threshold | B1 |
| below the threshold | B2 |

target: T10, LIN7C, Q9NUP9; assay: holdup assay; parameters: key: below the threshold = too weak to quantify, mostly under pKd 3.1 to 4; details: plain residues with an end cap or a label only (N-terminal biotin on a linker: ado-ado)

| pKd | Binder |
| --- | --- |
| below the threshold | B1 |
| below the threshold | B2 |

target: HTRA2, O43464; assay: holdup assay; parameters: key: below the threshold = too weak to quantify, mostly under pKd 3.1 to 4; details: plain residues with an end cap or a label only (N-terminal biotin on a linker: ado-ado)
Sequence (O43464 355-458): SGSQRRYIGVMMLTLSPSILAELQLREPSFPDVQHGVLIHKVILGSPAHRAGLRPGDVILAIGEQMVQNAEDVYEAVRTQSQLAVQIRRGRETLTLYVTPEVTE

| pKd | Binder |
| --- | --- |
| below the threshold | B1 |
| below the threshold | B2 |

target: DLG4_2, P78352; assay: holdup assay; parameters: key: below the threshold = too weak to quantify, mostly under pKd 3.1 to 4; details: plain residues with an end cap or a label only (N-terminal biotin on a linker: ado-ado)
Sequence (P78352 155-259): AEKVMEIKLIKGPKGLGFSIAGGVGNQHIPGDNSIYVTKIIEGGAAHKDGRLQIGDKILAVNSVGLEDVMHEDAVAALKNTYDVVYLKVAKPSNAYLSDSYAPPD

| pKd | Binder |
| --- | --- |
| 3.61 | B1 |
| below the threshold | B2 |

target: MAST1, Q9Y2H9; assay: holdup assay; parameters: key: below the threshold = too weak to quantify, mostly under pKd 3.1 to 4; details: plain residues with an end cap or a label only (N-terminal biotin on a linker: ado-ado)
Sequence (Q9Y2H9 962-1065): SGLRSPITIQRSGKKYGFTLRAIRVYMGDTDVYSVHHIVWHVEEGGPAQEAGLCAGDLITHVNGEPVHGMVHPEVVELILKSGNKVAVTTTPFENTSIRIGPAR

| pKd | Binder |
| --- | --- |
| 4.16 | B1 |
| 4.21 | B2 |

target: GORASP1, Q9BQQ3; assay: holdup assay; parameters: key: below the threshold = too weak to quantify, mostly under pKd 3.1 to 4; details: plain residues with an end cap or a label only (N-terminal biotin on a linker: ado-ado)
Sequence (Q9BQQ3 1-208): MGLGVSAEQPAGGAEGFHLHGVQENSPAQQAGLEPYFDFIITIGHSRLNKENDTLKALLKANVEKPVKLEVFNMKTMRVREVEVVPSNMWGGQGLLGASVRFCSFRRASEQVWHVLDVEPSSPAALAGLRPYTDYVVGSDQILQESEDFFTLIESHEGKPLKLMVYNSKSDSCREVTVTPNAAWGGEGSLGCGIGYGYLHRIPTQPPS

| pKd | Binder |
| --- | --- |
| below the threshold | B1 |
| below the threshold | B2 |

target: PARD3_3, Q8TEW0; assay: holdup assay; parameters: key: below the threshold = too weak to quantify, mostly under pKd 3.1 to 4; details: plain residues with an end cap or a label only (N-terminal biotin on a linker: ado-ado)
Sequence (Q8TEW0 582-685): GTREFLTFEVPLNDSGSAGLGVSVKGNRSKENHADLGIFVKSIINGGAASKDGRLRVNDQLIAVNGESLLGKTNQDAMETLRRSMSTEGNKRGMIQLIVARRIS

| pKd | Binder |
| --- | --- |
| below the threshold | B1 |
| below the threshold | B2 |
